In IntAct's records for PubMed 15447654:

B1: Adagio protein 1 (Arabidopsis thaliana (Mouse-ear cress)), Q94BT6 (parent)
chain: MEWDSGSDLSADDASSLADDEEGGLFPGGGPIPYPVGNLLHTAPCGFVVTDAVEPDQPIIYVNTVFEMVTGYRAEEVLGGNCRFLQCRGPFAKRRHPLVDSMVVSEIRKCIDEGIEFQGELLNFRKDGSPLMNRLRLTPIYGDDDTITHIIGIQFFIETDIDLGPVLGSSTKEKSIDGIYSALAAGERNVSRGMCGLFQLSDEVVSMKILSRLTPRDVASVSSVCRRLYVLTKNEDLWRRVCQNAWGSETTRVLETVPGAKRLGWGRLARELTTLEAAAWRKLSVGGSVEPSRCNFSACAVGNRVVLFGGEGVNMQPMNDTFVLDLNSDYPEWQHVKVSSPPPGRWGHTLTCVNGSNLVVFGGCGQQGLLNDVFVLNLDAKPPTWREISGLAPPLPRSWHSSCTLDGTKLIVSGGCADSGVLLSDTFLLDLSIEKPVWREIPAAWTPPSRLGHTLSVYGGRKILMFGGLAKSGPLKFRSSDVFTMDLSEEEPCWRCVTGSGMPGAGNPGGVAPPPRLDHVAVNLPGGRILIFGGSVAGLHSASQLYLLDPTEDKPTWRILNIPGRPPRFAWGHGTCVVGGTRAIVLGGQTGEEWMLSELHELSLASYLT

Variants of: B1
Conditions: with skp1a_arath SKP1A

| Variant | effect of a mutation on the interaction |
| --- | --- |
| L200A | decreasing interaction |
| L213A | decreasing interaction |
